Results reported in the supplement of paper PMC10065799, “High-throughput profiling of sequence recognition by tyrosine kinases and SH2 domains using bacterial peptide display” (eLife, 2023).

Assays:
[1] = target: Grb2 SH2 (UniProt P62993); assay: SH2 binding enrichment of the phosphorylated peptide, bacterial display (enrichment ratio); higher = better substrate or ligand; peptides without Tyr show the background
[2] = target: c-Src SH2; assay: as above
[3] = target: SHP2-C SH2; assay: as above
[4] = target: EPHB2 (UniProt P29323); assay: phosphorylation enrichment, bacterial display (enrichment ratio); higher = better substrate or ligand; peptides without Tyr show the background
[5] = target: EPHB1 (UniProt P54762); assay: as above
[6] = system: c-Abl (mouse); assay: as above
[7] = target: Fes (UniProt P07332); assay: as above
Fes, sequence (P07332 whole entry, looked up): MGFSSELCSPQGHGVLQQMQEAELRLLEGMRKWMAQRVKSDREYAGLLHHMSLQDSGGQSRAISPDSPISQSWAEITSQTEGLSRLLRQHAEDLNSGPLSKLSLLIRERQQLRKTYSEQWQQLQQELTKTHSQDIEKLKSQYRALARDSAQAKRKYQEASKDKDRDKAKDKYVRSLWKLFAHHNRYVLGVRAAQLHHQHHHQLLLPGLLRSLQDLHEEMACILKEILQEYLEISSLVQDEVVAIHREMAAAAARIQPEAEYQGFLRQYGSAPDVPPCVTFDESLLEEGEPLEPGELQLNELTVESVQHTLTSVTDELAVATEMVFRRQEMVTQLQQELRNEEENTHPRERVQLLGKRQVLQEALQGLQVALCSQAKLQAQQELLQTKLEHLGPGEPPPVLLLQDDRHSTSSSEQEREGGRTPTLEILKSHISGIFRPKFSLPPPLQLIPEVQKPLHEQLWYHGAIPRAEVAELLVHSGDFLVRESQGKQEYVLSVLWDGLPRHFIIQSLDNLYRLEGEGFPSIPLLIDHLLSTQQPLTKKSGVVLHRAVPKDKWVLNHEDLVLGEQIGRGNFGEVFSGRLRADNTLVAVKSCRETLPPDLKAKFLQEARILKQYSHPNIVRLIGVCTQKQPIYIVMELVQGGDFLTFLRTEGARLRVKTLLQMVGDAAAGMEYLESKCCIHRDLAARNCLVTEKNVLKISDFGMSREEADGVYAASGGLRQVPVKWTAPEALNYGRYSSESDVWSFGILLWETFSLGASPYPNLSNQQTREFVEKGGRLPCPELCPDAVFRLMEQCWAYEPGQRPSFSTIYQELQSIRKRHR

[8] = target: FGFR1 (UniProt P11362); assay: as above
FGFR1, sequence (P11362 whole entry, looked up): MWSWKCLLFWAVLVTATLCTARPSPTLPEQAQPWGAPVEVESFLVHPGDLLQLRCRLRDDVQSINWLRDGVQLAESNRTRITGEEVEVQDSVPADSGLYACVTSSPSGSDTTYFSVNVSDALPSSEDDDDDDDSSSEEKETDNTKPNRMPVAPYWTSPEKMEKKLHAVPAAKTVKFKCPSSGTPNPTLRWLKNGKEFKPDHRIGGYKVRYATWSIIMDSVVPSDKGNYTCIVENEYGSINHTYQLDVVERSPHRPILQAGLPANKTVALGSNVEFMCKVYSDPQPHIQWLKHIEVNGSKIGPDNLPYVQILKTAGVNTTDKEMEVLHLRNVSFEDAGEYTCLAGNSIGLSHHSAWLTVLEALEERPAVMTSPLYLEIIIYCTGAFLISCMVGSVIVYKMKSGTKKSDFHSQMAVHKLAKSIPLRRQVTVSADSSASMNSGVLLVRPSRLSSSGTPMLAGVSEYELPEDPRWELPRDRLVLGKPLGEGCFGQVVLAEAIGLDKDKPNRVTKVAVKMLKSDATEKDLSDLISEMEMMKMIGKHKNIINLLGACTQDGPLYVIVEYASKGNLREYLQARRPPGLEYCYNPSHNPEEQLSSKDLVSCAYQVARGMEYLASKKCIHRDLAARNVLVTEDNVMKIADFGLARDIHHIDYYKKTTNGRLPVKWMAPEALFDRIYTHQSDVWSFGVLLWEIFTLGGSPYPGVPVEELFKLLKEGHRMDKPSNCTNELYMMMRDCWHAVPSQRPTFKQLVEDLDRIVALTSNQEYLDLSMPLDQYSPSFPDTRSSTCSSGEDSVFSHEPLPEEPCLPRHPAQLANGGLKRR

[9] = target: Jak2 (UniProt O60674); assay: as above
Jak2, sequence (O60674 whole entry, looked up): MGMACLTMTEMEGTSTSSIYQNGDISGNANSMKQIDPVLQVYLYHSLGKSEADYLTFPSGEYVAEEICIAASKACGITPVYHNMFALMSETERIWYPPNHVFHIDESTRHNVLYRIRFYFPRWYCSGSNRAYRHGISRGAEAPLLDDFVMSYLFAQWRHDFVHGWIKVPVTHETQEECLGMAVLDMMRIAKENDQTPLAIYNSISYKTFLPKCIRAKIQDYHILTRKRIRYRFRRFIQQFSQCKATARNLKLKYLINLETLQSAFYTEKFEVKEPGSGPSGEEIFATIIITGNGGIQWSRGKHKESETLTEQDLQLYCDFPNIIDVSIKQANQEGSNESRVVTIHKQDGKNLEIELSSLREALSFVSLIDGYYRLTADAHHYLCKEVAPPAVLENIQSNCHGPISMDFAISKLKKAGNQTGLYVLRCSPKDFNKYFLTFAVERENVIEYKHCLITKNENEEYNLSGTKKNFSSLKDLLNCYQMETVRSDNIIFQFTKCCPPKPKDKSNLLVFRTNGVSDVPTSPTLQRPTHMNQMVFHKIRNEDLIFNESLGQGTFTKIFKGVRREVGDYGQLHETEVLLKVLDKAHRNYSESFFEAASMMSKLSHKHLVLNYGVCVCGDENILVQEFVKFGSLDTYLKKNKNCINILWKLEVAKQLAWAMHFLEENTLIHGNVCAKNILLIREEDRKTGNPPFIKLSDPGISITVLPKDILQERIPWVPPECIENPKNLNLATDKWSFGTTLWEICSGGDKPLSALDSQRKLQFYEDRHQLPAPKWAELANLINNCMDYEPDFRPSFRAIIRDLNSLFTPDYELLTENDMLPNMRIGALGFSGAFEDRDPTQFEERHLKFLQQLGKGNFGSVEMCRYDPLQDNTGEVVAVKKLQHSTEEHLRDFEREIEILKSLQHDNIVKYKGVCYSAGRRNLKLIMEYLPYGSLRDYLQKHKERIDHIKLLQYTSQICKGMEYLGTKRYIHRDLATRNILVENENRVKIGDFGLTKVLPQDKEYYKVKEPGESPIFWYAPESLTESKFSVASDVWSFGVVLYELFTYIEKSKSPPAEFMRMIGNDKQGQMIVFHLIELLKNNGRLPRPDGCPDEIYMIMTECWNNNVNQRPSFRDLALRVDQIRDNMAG

[10] = target: MERTK (UniProt Q12866); assay: as above
MERTK, sequence (Q12866 whole entry, looked up): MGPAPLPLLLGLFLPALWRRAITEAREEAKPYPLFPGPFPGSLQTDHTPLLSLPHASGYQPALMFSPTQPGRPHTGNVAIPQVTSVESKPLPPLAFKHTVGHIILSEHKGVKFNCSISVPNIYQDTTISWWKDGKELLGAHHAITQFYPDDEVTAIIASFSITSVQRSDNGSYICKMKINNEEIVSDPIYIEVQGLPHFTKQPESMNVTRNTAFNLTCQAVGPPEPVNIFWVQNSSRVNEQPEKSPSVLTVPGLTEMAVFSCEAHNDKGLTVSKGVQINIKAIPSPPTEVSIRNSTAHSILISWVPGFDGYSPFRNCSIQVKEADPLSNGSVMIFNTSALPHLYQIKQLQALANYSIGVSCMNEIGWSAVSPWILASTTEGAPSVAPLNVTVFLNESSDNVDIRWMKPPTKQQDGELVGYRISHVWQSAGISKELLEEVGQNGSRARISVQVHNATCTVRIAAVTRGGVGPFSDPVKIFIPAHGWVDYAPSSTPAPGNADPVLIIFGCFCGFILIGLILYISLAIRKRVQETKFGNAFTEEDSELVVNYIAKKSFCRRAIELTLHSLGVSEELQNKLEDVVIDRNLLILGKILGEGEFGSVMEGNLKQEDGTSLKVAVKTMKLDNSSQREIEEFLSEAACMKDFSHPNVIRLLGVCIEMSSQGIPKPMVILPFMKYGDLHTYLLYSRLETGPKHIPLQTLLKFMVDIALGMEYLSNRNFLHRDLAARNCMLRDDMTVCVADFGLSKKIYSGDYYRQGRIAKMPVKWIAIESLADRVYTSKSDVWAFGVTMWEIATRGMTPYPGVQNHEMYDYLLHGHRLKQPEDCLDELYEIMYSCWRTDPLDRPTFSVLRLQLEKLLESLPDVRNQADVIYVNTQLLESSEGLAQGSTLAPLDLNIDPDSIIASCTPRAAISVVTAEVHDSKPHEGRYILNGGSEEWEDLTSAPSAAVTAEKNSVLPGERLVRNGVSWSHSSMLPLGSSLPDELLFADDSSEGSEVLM

[11] = system: Fer (mouse); assay: as above
[12] = target: Fyn (UniProt P06241); assay: as above
Fyn, sequence (P06241 whole entry, looked up): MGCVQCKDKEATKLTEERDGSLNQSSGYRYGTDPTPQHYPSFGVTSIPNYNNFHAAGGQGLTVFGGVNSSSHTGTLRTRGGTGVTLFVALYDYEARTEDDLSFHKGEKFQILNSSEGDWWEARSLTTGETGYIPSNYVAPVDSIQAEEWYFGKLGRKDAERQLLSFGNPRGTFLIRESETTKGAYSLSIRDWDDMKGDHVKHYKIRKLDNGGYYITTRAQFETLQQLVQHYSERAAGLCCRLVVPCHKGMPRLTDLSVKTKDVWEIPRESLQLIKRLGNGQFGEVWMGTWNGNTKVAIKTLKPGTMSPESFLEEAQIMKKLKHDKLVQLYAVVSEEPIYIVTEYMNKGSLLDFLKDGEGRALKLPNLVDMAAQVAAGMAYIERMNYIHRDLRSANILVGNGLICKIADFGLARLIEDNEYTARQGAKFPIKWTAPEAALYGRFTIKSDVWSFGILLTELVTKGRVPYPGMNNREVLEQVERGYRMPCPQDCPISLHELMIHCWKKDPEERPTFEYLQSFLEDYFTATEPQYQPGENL

[13] = system: c-Src; assay: as above
[14] = system: AncSZ; assay: as above
[15] = target: Hck (UniProt P08631); assay: as above
Hck, sequence (P08631 whole entry, looked up): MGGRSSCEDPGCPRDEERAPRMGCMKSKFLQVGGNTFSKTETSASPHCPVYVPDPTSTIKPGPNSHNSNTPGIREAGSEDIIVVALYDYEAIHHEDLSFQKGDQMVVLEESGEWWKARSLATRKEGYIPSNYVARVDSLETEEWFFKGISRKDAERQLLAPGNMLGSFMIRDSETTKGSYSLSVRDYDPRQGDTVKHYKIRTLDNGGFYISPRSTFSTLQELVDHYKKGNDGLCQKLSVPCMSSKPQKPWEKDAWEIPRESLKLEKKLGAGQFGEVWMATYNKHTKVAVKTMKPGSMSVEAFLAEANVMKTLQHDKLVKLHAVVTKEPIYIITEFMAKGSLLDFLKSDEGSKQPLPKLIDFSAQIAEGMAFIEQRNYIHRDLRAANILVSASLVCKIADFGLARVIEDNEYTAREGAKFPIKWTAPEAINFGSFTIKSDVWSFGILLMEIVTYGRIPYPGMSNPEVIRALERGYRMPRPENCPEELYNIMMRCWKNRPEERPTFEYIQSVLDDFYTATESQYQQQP

[16] = target: FGFR3 (UniProt P22607); assay: as above
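Wherever SH2 binding enrichment of the phosphorylated peptide, bacterial display is given: peptide library displayed on the E. coli surface as eCPX fusions, selected cells deep-sequenced, score is each peptide's frequency after selection divided by its frequency in the input.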
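Wherever phosphorylation enrichment, bacterial display is given: 11-residue human phosphosite peptides and single-mutation variants displayed on the E. coli surface, counted by deep sequencing, each peptide's frequency after selection divided by its frequency in the unselected input library; frequency after pTyr selection over input frequency; kinase dosed for 20-30% of maximal phosphorylation in three min.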

Grb2 SH2, sequence (P62993 whole entry, looked up): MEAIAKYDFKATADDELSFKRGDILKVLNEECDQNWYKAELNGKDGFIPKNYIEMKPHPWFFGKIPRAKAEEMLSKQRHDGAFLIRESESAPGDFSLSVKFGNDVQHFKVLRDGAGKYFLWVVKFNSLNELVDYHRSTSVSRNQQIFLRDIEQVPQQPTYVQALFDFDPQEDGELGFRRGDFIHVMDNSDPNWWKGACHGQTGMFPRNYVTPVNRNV

Sequence	SH2 binding enrichment [1]	SH2 binding enrichment [2]	SH2 binding enrichment [3]	phosphorylation enrichment [4]	phosphorylation enrichment [5]	phosphorylation enrichment [6]	phosphorylation enrichment [7]	phosphorylation enrichment [8]	phosphorylation enrichment [9]	phosphorylation enrichment [10]	phosphorylation enrichment [11]	phosphorylation enrichment [12]	phosphorylation enrichment [13]	phosphorylation enrichment [14]	phosphorylation enrichment [15]	phosphorylation enrichment [16]
RSDEDYLFREE [POR_Y573_YF]	0.847	0.477	0.642	0.964	0.865	1.31	2.36	0.914	1.66	0.592	0.891	0.768	0.836	1.47	0.983	1.34
AVNDFYAAKKT [CCDC178_Y422]	1.07	0.457	0.87	0.372	0.464	0.61	0.703	0.648	0.548	0.449	0.381	0.508	0.429	0.629	0.5	0.551
SQPASYQRRFL [PPIG_Y320_L324F]	0.711	0.407	0.61	0.579	0.38	0.599	0.667	0.472	0.631	0.505	0.364	0.425	0.466	0.768	0.492	0.439
VEDPEYAVTQL [STOML2_Y124]	1.11	0.483	0.835	0.531	0.466	0.597	0.997	0.477	0.893	0.409	0.709	0.398	0.549	1.24	0.463	0.516
MSSLPYMKVIF [SLC4A11_Y853_M856V]	1.38	1	2.98	0.541	0.482	0.461	0.84	0.764	1.02	0.507	1.01	0.507	0.516	0.822	0.622	0.592
ADCRYYAFPQM [GAMT_Y223]	0.862	1.84	0.656	10.8	9.71	7.97	1.33	11	5.86	9.72	8.45	2.75	3.76	4.46	3.1	8.74
RLVTRYIFNRE [HLA-DQB1_Y62_Y58L_YF]	0.851	0.5	0.728	0.415	0.477	0.51	0.815	0.579	0.556	0.652	0.54	0.553	0.462	0.639	0.445	0.695
IDSTPYRQWFE [RPS8_Y109_YF]	0.758	0.417	0.744	0.464	0.487	0.665	0.856	0.494	0.855	0.357	0.406	0.302	0.368	0.739	0.442	0.551
VTVLDYDKIGK [SYT1_Y365]	0.774	2.88	0.777	0.541	0.45	0.482	0.828	0.505	0.501	0.48	0.404	0.343	0.391	0.621	0.648	0.515
QTWKTYVRQQQ [SFI1_Y164]	0.95	0.756	0.96	0.685	0.524	0.673	1.02	0.411	0.766	0.456	0.446	0.526	0.37	0.914	0.402	0.738
QNVADYMRYLM [RPL5_Y207]	1.12	0.628	1.02	1.16	1.98	0.682	1.96	1.07	0.994	0.523	0.736	0.723	0.684	1.49	0.736	0.893
RLLVVYPWTER [HBB_Y36_Q40E]	2.1	1.55	2.29	0.572	0.345	0.612	1.21	0.513	1.03	0.324	0.37	0.472	0.52	1.16	0.618	0.58
SAEEDYMADAK [KCNT1_Y876]	0.901	0.525	0.758	0.662	0.733	0.686	1.36	0.634	1.25	0.486	0.632	0.652	0.473	1.3	0.586	0.843
NNHGNYIVHLG [ETFDH_Y172_R175H]	0.863	0.587	0.856	2.19	4.2	0.53	0.698	0.623	0.583	0.493	0.712	0.525	0.391	0.71	0.511	0.537
QRMGTYGVRAA [ICAM2_Y260]	1	0.724	0.881	0.657	0.685	0.637	1.14	0.754	0.983	0.618	0.852	2.06	1.58	1.26	3.44	0.702
ICANKYMVKSC [RPL10_Y75]	1.09	1.13	1.12	0.445	0.476	0.524	0.815	0.385	0.735	0.409	0.464	0.406	0.44	0.719	0.424	0.514
EPVSDYINANI [PTPN11_Y304]	0.819	0.466	0.911	0.495	0.433	0.603	0.847	0.454	0.799	0.325	0.412	0.447	0.38	0.997	0.541	0.673

Sequence	SH2 binding enrichment [1]	SH2 binding enrichment [2]	SH2 binding enrichment [3]	phosphorylation enrichment [4]	phosphorylation enrichment [5]	phosphorylation enrichment [6]	phosphorylation enrichment [7]	phosphorylation enrichment [8]	phosphorylation enrichment [9]	phosphorylation enrichment [10]	phosphorylation enrichment [11]	phosphorylation enrichment [12]	phosphorylation enrichment [13]	phosphorylation enrichment [14]	phosphorylation enrichment [15]	phosphorylation enrichment [16]
SGGSSYGSGGG [KRT1_Y532]	0.871	0.427	0.527	0.396	0.381	0.633	0.583	0.411	0.537	0.362	0.397	0.382	0.449	0.506	0.396	0.389
VRVQLYDPDYM [CYP4A22_Y100]	1.08	0.545	1.45	0.776	1.27	0.79	1.27	0.538	1.15	0.887	0.599	0.493	0.615	1.56	0.807	0.741
GRSTCYWPRPR [GAGE12J_Y10_Y9C]	1.03	0.507	0.831	0.512	0.502	0.697	0.686	0.538	0.885	0.567	0.602	0.543	0.649	0.762	0.557	0.531
DVCKKYAEAKD [ALB_Y343_N342K]	0.757	0.562	0.431	0.646	0.72	0.775	1.23	0.627	0.897	0.402	0.546	0.639	0.53	1.24	0.659	0.821
LEAVSYSSRFA [RNLS_Y190_YF]	0.777	0.486	0.793	0.359	0.369	0.596	0.773	0.432	0.564	0.399	0.408	0.474	0.435	0.718	0.463	0.496
WCSNDYLGMSQ [ALAS2_Y199_R204Q]	1.1	0.717	0.738	0.944	1.52	0.782	1.02	3.03	4.19	0.478	0.642	0.541	1.06	2.88	0.738	2.11
TTSQPYRRLCS [USH2A_Y534_C536R]	0.622	0.581	0.542	0.393	0.247	0.288	0.866	0.287	0.355	0.316	0.315	0.29	0.356	0.412	0.286	0.479
LAVVDYIRRQK [ATM_Y1915_M1916I]	0.441	0.338	0.461	1.42	0.918	1.37	1.24	0.791	0.855	0.863	0.839	0.649	1.21	1.06	0.749	0.92
GTQGSYLLSRK [UGT3A1_Y123_C121G]	0.584	0.392	0.821	0.411	0.48	0.606	0.56	0.366	0.615	0.433	0.392	0.4	0.555	0.523	0.49	0.355
FFRNVYHLASV [RBL1_Y796_K794N_YF]	0.563	1.79	0.629	0.515	0.509	0.51	0.763	0.486	0.575	0.404	0.403	1.25	0.862	0.803	0.596	0.532
LTFPDYLPCSV [SAG_Y129]	0.748	0.472	0.739	0.601	0.879	1.13	1.44	3.74	2.91	0.463	0.715	0.427	0.535	2.34	0.479	3.07
DSGKLYALDGL [INO80_Y1104_V1108G]	0.92	0.567	0.525	0.833	0.723	0.699	1.02	0.581	0.912	2.2	0.719	0.763	1.17	0.829	0.828	0.715
HYECKYVINAI [MAOA_Y268]	0.735	0.59	0.634	0.788	0.841	0.86	1.61	0.557	0.95	0.66	0.506	0.507	0.859	1.38	0.657	0.957
SGPRRYNIAAL [TTR_Y125_T126N]	0.556	0.419	0.551	0.343	0.285	0.452	0.52	0.505	0.511	0.411	0.432	0.377	0.409	0.572	0.43	0.394
GAVDTYCRHNF [HLA-DRB1_Y107_A102G_YF]	0.958	0.68	0.809	0.524	0.695	0.583	0.742	0.427	0.648	0.474	0.591	0.479	0.49	0.649	0.509	0.528
HQNGTYGLHQD [SGSH_Y89_M88T]	1.04	0.401	0.666	0.541	0.418	0.555	0.764	0.71	0.459	0.414	0.431	0.61	0.599	0.615	0.753	0.727
